The values below come from patent publication US6815189B1, “Gene from acremonium chrysogenum encoding a protein with cephalosporin C acetylhydrolase activity and methods of use of such gene” (Antibiotics, S.A.U., priority 1999, dated 2004).

The test system of the series is [H][C@]12SCC(COC(C)=O)=C(C(=O)O)N1C(=O)[C@H]2NC(=O)CCC[C@@H](N)C(=O)O. As to the kind of experiment: Effect of substrate concentration on CPC-AH B activity (Lineweaver-Burk). As to conditions: other: CPC-AH B vs. CPC, 37.0 °C. The class given is biochemical, Acremonium chrysogenum. As to the method: To quantify the enzymatic degradation of the CPC, a reaction mixture was prepared, based on that described by Fujisawa et al. (1975, Agric. Biol. Chem. 39: 1303-1309) that contained, in a total volume of 100 μl: Tris-HCl, pH 8.0, 50 mM; CPC, 20 mM and culture supernatant 75 μl. The mixture was incubated for 60 minutes at 37° C. and the reaction was stopped by adding 100 μl of methanol. The proteins precipitated were removed by centrifugation for 5 minutes at 14 000 rev/min in an Eppendorff centrifuge. Production of DAC was analysed by injecting 100 μl of the reaction mixture in an HPLC Beckman System Gold equipped with a μBondapack C18 column. Elution was performed using a mixture of solvents A (10 mM sodium acetate—acetic acid, pH 4.5) and B (100% acetonitrile) using a linear gradient from 0 to 3% of solvent B between the 0 and 2 minutes and constant 3% from minute 2 to 15 at a flow of 1.3 ml/min. The cephalosporins are detected by their absorbance at 260 nm. In these conditions DAC is eluted with a retention time of 3.1 min whereas for CPC this occurs at 8.3 min. Both compounds were identified by co-elution with standard samples of CPC and DAC.
With fractions obtained from ion exchange separation, tests of CPC-AH activity were performed by HPLC, varying the concentration of CPC. […]

In general, Km refers to the concentration of substrate that gives half-maximal velocity.

Chain of CPC-AH B (Hapsidospora chrysogenum ATCC 11550) (chain, as listed by the source): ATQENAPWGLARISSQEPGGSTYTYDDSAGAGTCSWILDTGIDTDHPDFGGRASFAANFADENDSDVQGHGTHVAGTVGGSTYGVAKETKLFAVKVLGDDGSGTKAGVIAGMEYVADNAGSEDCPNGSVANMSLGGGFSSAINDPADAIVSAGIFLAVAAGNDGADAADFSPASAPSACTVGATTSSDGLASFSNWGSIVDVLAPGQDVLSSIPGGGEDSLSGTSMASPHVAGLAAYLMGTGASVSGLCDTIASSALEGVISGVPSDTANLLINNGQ

In the case of “CPC-AH B (Hapsidospora chrysogenum ATCC 11550)”, the Michaelis-Menten constant (Km) turned out to be 33.72 mM and the Vmax was 91.95 pKat/mg.
